Data from US20180282403A1, “AGENTS FOR REDUCING THE ACTIVITY OF GDF15” (GENAGON THERAPEUTICS AB, priority 2015, published 2018).
Values belong to the molecule of their own block, whether it stands above or below them. No end group written: not given here.

How the values were obtained:
GDF15 [1] = molecular target: T1, GDF15 (Homo sapiens, UniProt Q99988); test: ELISA of GDF15 binding to immobilised biotinylated CLPTM1 derived peptides; details: for binding of GDF15 to immobilised polypeptide: cut-off approximately greater than or equal to 0.1 OD
T1 construct: purchased Abcam
T1 sequence (Q99988 197-308 limits assumed): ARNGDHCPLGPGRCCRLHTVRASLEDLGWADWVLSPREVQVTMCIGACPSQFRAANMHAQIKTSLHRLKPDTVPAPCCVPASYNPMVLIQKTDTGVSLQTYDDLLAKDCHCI
Procedure: (§1) Biotinylated synthetic peptide fragments from CLPTM1 (JPT peptides, Germany) were immobilized in a streptavidin 96 well plate (#15500 Pierce) at 1 μM in PBS over night at +4° C. Plate was washed 4 times in 300 μl PBS with 0.05% Tween-20 (wash buffer). The plate was blocked with PBS 1% BSA and 0.05% Tween-20 (blocking buffer) for 1.5 hours at room temperature then washed 4 times in wash buffer. GDF15 ligand (Abcam) was added in blocking buffer at 100 ng/ml at incubated at room temperature for 2 hours. The plate was then washed 8 times 300 μl in wash buffer with 2× NaCl. A GDF15 antibody as added at 1 ug/ml (RnD systems goat polyclonal) and incubated in block buffer for 1 hour at room temperature followed by washing with 4×300 μl wash buffer. HAF017 anti-goat-HRP antibody was added and incubated for 1 hour in blocking buffer followed by a wash. TMB substrate was added and stopped after 15 minutes with H2SO4. OD 450-620 was measured in an ELISA reader.
Polypeptides having sequences set forth in SEQ ID NOs:250-273 were assessed for binding to GDF15 (corresponding to the polypeptides indicated from left to right in FIG. 31). These proteins were synthesised with a C-terminal glycine residue not present in the corresponding sequences from CLPTM1. A cut-off of approximately greater than or equal to 0.1 OD in the ELISA readout was identified as indicating binding of the GDF15 to an immobilised polypeptide (i.e. including the 0.098 OD value for GDF15 binding to the polypeptide having the sequence set forth in SEQ ID NO:258).

GDF15 [2] = molecular target: T1, GDF15; test: Pull down of GDF15 by Fc fusion proteins with stringent washes; assay type: binding; details: 20 μg Fc fusion protein, 0.5 μg GDF15, protein-G bead, FIG. 27
Procedure: 20 μg Fc fusion protein constructs were incubated with 0.5 μg GDF15 and protein-G bead with mixing for 6 hrs in +4 C in PBST+1% BSAs. Wash 6 times: 3 times PBST, change tubes, 2 washes PBST+220 mM NaCl. Last wash PBS. The beads were collected using a table-top centrifuge set at 500 g for 5 minutes between washes. Detection The material was loaded on a 4-12% gradient gel, run at 100 volt, transferred to PVDF membrane using a Turbo Tank blot system, blocked by PBS with 3% BSA 1 hr RT, and incubated with RD systems a monoclonal anti-GDF15 antibody overnight. A secondary antibody: mouse HRP 1:2000 was used for detection. The size of band was estimated by comparing with a seeblue2 protein ladder marker run in an adjacent lane.
The fragments from the receptors were selected based on previous results including array data indicating direct interaction with GDF15. In the array, the interaction is between a peptide monomer and the ligand.

QRFPR = molecular target: T2, QRFPR (Homo sapiens, UniProt Q96P65); test: ACTRIIB assay: in situ PLA detection of ACTRIIB at the cell surface after QRFPR agonist P518; assay type: cell-based
T2 construct: endogenous in cells
T2 sequence (Q96P65 1-431): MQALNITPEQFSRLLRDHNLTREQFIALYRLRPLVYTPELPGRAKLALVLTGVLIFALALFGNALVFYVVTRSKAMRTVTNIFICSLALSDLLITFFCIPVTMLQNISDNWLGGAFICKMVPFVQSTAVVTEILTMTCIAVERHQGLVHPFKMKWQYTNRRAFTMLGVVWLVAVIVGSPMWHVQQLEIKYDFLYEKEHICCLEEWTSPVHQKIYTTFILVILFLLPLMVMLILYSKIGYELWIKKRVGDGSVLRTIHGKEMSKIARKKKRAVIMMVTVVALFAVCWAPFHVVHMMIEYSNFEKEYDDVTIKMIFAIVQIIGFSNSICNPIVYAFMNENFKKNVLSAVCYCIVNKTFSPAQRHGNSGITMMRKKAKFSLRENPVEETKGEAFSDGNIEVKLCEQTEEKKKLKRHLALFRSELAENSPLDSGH
From the text: A-C) In situ detection of QRFPR at the cell surface. A) Negative control cells with no added GDF15. B) Cells after exposure to GDF15. C) Cells after exposure to GDF15+ synthetic peptide GEKEYDDVTIK derived from extracellular domain 4 of QRFPR. […] D-F) In situ PLA detection of ACTRIIB at the cell surface. D) Control cells with no added P518. E) Cells after exposure to P518. F) Cells after exposure to P518+ synthetic peptide GEKEYDDVTIK derived from extracellular domain 4 of QRFPR in 125 molar excess. The ability of P518 to increase the level of ACTRIIB at the cell surface was not affected by the peptide.
The effect of the QRFPR agonist p518 was measured. In short, p518/QRFP-26 was purchased from Phoenix Peptides, CA and processed according to the manufacturer's instructions. Cells were serum-starved prior to P518 stimulation overnight.
P518 was mixed with either PBS or QRFPR receptor fragment dissolved in PBS prior to stimulation of cells.

[3] = molecular target: T3, Growth and differentiation factor 15 (GDF15) (UniProt Q99988 197-308, limits assumed); test: ELISA, biotinylated peptide in streptavidin wells, GDF15 at 100 ng/ml
T3 construct: Purchased GDF15 added to cells, pull-downs, peptide arrays and ELISA; also called MIC1
T3 sequence (looked up): T1 sequence (Q99988 197-308 limits assumed)
Procedure: as §1, with “H₂SO₄.” for “H2SO4.”
Polypeptides having sequences set forth in SEQ ID NOs:250-273 were assessed for binding to GDF15 (corresponding to the polypeptides indicated from left to right in FIG. 31). These proteins were synthesised with a C-terminal glycine residue not present in the corresponding sequences from CLPTM1.

Molecule: KALYRRLATVHMSRMINKYKG (listed as Homo sapiens) [SEQ ID NO:259]
- binding of GDF15 to immobilised polypeptide (GDF15 [1]; FIG. 31): showed binding to GDF15

Molecule: GSIYIHVYFTKSGFHPDPRQG (listed as Homo sapiens) [SEQ ID NO:258]
- binding of GDF15 to immobilised polypeptide (GDF15 [1]; FIG. 31): showed binding to GDF15
- OD value in the ELISA readout for GDF15 binding (GDF15 [1]; peptide immobilised at 1 μM, GDF15 100 ng/ml, OD 450-620, FIG. 31): 0.098 OD

Molecule: ITINIVDDHTPWVKGSVPPPG (listed as Homo sapiens) [SEQ ID NO:262]
- binding of GDF15 to immobilised polypeptide (GDF15 [1]; FIG. 31): showed binding to GDF15

Molecule: YPINESLASLPLRVSFCPLSG (listed as Homo sapiens) [SEQ ID NO:269]
- binding of GDF15 to immobilised polypeptide (GDF15 [1]; FIG. 31): showed binding to GDF15

Molecule: LDQYVKFDAVSGDYYPIIYFG (listed as Homo sapiens) [SEQ ID NO:263]
- binding of GDF15 to immobilised polypeptide (GDF15 [1]; FIG. 31): showed binding to GDF15

Molecule: GDYYPIIYFNDYWNLQKDYYG (listed as Homo sapiens) [SEQ ID NO:270]
- affinity for GDF15 (MIC1) within a panel of 24 CLPTM1 derived peptides (GDF15 [1]): highest affinity
- binding of GDF15 to immobilised polypeptide (GDF15 [1]; FIG. 31): showed binding to GDF15

Molecule: Fc mouse IgG1-GGGGSGGGGSGGGGSQRLEIKYDFLYEKEH ({Fc mouse IgG1}-GGGGSGGGGSGGGGSQRLEIKYDFLYEKEH) [AP5, Fc fusion protein with QRFPR peptide]
- pull down of GDF15 by Fc fusion protein (GDF15 [2]): capable of pulling down GDF15

Molecule: QRFP(43-mer): known agonist for QRFPR (QDEGSEATGFLPAAGEKTSGPLGNLAEELNGYSRKKGGFSFRF; ends and bridges not checked; UniProt P83859 91-133, looked up)
- regulation of the levels of ACTRIIB by QRFPR agonists (QRFPR): act in opposite manner to each other

B1: CLPTM1 peptide KALYRRLATVHMSRMINKYKG (SEQ ID NO: 259) (peptide)
peptide: KALYRRLATVHMSRMINKYKG
modifications: also: biotinylated, position not given here
notes: Immobilised in streptavidin wells; the entry carries one added C-terminal G; also called (182-201)
- binding result [3]: binds

B4: AAAQEADGARSAVVAAGGGSSGQVTSNGSIGRDPPAETQPQNPPAQPAPNAGGGGSGGGGSGGGGS-Fc mouse IgG1 (protein)
chain: AAAQEADGARSAVVAAGGGSSGQVTSNGSIGRDPPAETQPQNPPAQPAPNAGGGGSGGGGSGGGGS-{Fc mouse IgG1}
notes: control protein, Fc fusion
- pull down of GDF15 by Fc fusion protein (GDF15 [2]): did not interact with GDF15

The next lines start with the values.

- regulation of the levels of ACTRIIB by QRFPR agonists (QRFPR): act in opposite manner to each other
- levels of ACTRIIB (QRFPR; p518 alone, serum-starved cells, overnight stimulation): sufficient to increase levels of ACTRIIB
Molecule: p518: QRFPR agonist purchased from Phoenix Peptides (TSGPLGNLAEELNGYSRKKGGFSFRF)

- binding result [3]: binds
B2: CLPTM1 peptide GDYYPIIYFNDYWNLQKDYYG (SEQ ID NO: 270) (peptide)
peptide: GDYYPIIYFNDYWNLQKDYYG
modifications: also: biotinylated, position not given here
notes: Immobilised in streptavidin wells; the entry carries one added C-terminal G; also called (273-292)

- binding result [3]: binds
B3: CLPTM1 peptide LDQYVKFDAVSGDYYPIIYFG (SEQ ID NO: 263) (peptide)
peptide: LDQYVKFDAVSGDYYPIIYFG
modifications: also: biotinylated, position not given here
notes: Immobilised in streptavidin wells; the entry carries one added C-terminal G; also called (262-280)

- binding result [3]: binds
B5: CLPTM1 peptide YPINESLASLPLRVSFCPLSG (SEQ ID NO: 269) (peptide)
peptide: YPINESLASLPLRVSFCPLSG
modifications: also: biotinylated, position not given here
notes: Immobilised in streptavidin wells; the entry carries one added C-terminal G; also called (292-311)

- binding result [3]: binds
B6: CLPTM1 peptide ITINIVDDHTPWVKGSVPPPG (SEQ ID NO: 262) (peptide)
peptide: ITINIVDDHTPWVKGSVPPPG
modifications: also: biotinylated, position not given here
notes: Immobilised in streptavidin wells; the entry carries one added C-terminal G; also called (242-260)
